Test results taken from paper PMC7020226, “Enzymatic Properties of Recombinant Phospho-Mimetic Photorespiratory Glycolate Oxidases from Arabidopsis thaliana and Zea mays” (Plants, 2019).

Columns and labels:
Conditions in all cases: 50 mM Tris-HCl pH 8.0, 0.1 mM FMN, 30 °C
[1] = substrate: CCCCCCC(O)C(=O)O; experiment: H2O2 detection, horseradish peroxidase / o-dianisidine coupled assay; format: biochemical, Zea mays
From the text: H2O2 detection, horseradish peroxidase / o-dianisidine coupled assay on ZmGO1

purified protein [2] = substrate: C[C@H](O)C(=O)O; experiment: purified protein
purified protein [3] = substrate: O=C(O)CO; experiment: purified protein
[4] = substrate: CCCCCCC(O)C(=O)O; experiment: H2O2 detection, horseradish peroxidase / o-dianisidine coupled assay; format: biochemical, Arabidopsis thaliana

B1: ZmGO1 (Zea mays) (protein)
chain: MGEITNVMEYQAIAKQKLPKMAYDYYASGAEDEWTLQENREAFSRILFRPRILIDVSKIDMTTTVLGFKISMPIMVAPTAMQKMAHPDGEYATARAAAAAGTIMTLSSWATSSVEEVASTGPGIRFFQLYVYKDRKVVEQLVRRAERAGFKAIALTVDTPRLGRREADIKNRFVLPPHLTLKNFEGLDLGKMDQAADSGLASYVAGQVDRTLSWKDVKWLQTITTLPILVKGVLTAEDTRLAVANGAAGIIVSNHGARQLDYVPATISALEEVVKAARGQLPVFVDGGVRRGTDVFKALALGAAGVFVGRPVVFSLAAAGEAGVSNVLRMLRDEFELTMALSGCTSLAEITRKHIITESDKLSAIPSRL
notes: full length, N-terminal His-tag, pET28a, expressed in Escherichia coli
B1 was tested, and the Km [1] was 136 ± 19 µM, the kcat [1] was 5.89 ± 0.14 s⁻¹ and the Km (purified protein [2]) was 495 ± 75 µM. For the same protein, the kcat (purified protein [2]) was 10.8 s⁻¹.

B2: ZmGO1 (Zea mays; T159V) (protein)
chain: MGEITNVMEYQAIAKQKLPKMAYDYYASGAEDEWTLQENREAFSRILFRPRILIDVSKIDMTTTVLGFKISMPIMVAPTAMQKMAHPDGEYATARAAAAAGTIMTLSSWATSSVEEVASTGPGIRFFQLYVYKDRKVVEQLVRRAERAGFKAIALTVDVPRLGRREADIKNRFVLPPHLTLKNFEGLDLGKMDQAADSGLASYVAGQVDRTLSWKDVKWLQTITTLPILVKGVLTAEDTRLAVANGAAGIIVSNHGARQLDYVPATISALEEVVKAARGQLPVFVDGGVRRGTDVFKALALGAAGVFVGRPVVFSLAAAGEAGVSNVLRMLRDEFELTMALSGCTSLAEITRKHIITESDKLSAIPSRL
notes: as for B1
In the case of B2, the Km ([1]; printed as T158V in Table 3) is reported as 48 ± 36 µM and the kcat ([1]; printed as T158V in Table 3) is reported as 3.22 ± 0.39 s⁻¹.

B3: AtGOX2 (Arabidopsis thaliana; T265D) (protein)
chain: MEITNVTEYDAIAKAKLPKMVYDYYASGAEDQWTLQENRNAFARILFRPRILIDVNKIDMATTVLGFKISMPIMVAPTAFQKMAHPDGEYATARAASAAGTIMTLSSWATSSVEEVASTGPGIRFFQLYVYKNRKVVEQLVRRAEKAGFKAIALTVDTPRLGRRESDIKNRFTLPPNLTLKNFEGLDLGKMDEANDSGLASYVAGQIDRTLSWKDIQWLQTITNMPILVKGVLTGEDARIAIQAGAAGIIVSNHGARQLDYVPADISALEEVVKATQGRVPVFLDGGVRRGTDVFKALALGASGIFIGRPVVFALAAEGEAGVKKVLQMLRDEFELTMALSGCRSLSEITRNHIVTEWDTPRHLPRL
B3 was tested, and the Km (purified protein [3]) was 388 ± 159 µM and the kcat (purified protein [3]) was 2.06 ± 1.09 s⁻¹.

B4: AtGOX2 (Arabidopsis thaliana; T158V) (protein)
chain: MEITNVTEYDAIAKAKLPKMVYDYYASGAEDQWTLQENRNAFARILFRPRILIDVNKIDMATTVLGFKISMPIMVAPTAFQKMAHPDGEYATARAASAAGTIMTLSSWATSSVEEVASTGPGIRFFQLYVYKNRKVVEQLVRRAEKAGFKAIALTVDVPRLGRRESDIKNRFTLPPNLTLKNFEGLDLGKMDEANDSGLASYVAGQIDRTLSWKDIQWLQTITNMPILVKGVLTGEDARIAIQAGAAGIIVSNHGARQLDYVPATISALEEVVKATQGRVPVFLDGGVRRGTDVFKALALGASGIFIGRPVVFALAAEGEAGVKKVLQMLRDEFELTMALSGCRSLSEITRNHIVTEWDTPRHLPRL
B4 was tested, and the Km (purified protein [3]) was 133 ± 83 µM and the kcat (purified protein [3]) was 2.49 ± 0.60 s⁻¹.

B5: AtGOX2 (Arabidopsis thaliana; T4D) (protein)
chain: MEIDNVTEYDAIAKAKLPKMVYDYYASGAEDQWTLQENRNAFARILFRPRILIDVNKIDMATTVLGFKISMPIMVAPTAFQKMAHPDGEYATARAASAAGTIMTLSSWATSSVEEVASTGPGIRFFQLYVYKNRKVVEQLVRRAEKAGFKAIALTVDTPRLGRRESDIKNRFTLPPNLTLKNFEGLDLGKMDEANDSGLASYVAGQIDRTLSWKDIQWLQTITNMPILVKGVLTGEDARIAIQAGAAGIIVSNHGARQLDYVPATISALEEVVKATQGRVPVFLDGGVRRGTDVFKALALGASGIFIGRPVVFALAAEGEAGVKKVLQMLRDEFELTMALSGCRSLSEITRNHIVTEWDTPRHLPRL
B5 gave a Km (purified protein [3]) of 390 ± 215 µM and a kcat (purified protein [3]) of 1.40 ± 0.42 s⁻¹.

B6: AtGOX2 (Arabidopsis thaliana) (protein)
chain: MEITNVTEYDAIAKAKLPKMVYDYYASGAEDQWTLQENRNAFARILFRPRILIDVNKIDMATTVLGFKISMPIMVAPTAFQKMAHPDGEYATARAASAAGTIMTLSSWATSSVEEVASTGPGIRFFQLYVYKNRKVVEQLVRRAEKAGFKAIALTVDTPRLGRRESDIKNRFTLPPNLTLKNFEGLDLGKMDEANDSGLASYVAGQIDRTLSWKDIQWLQTITNMPILVKGVLTGEDARIAIQAGAAGIIVSNHGARQLDYVPATISALEEVVKATQGRVPVFLDGGVRRGTDVFKALALGASGIFIGRPVVFALAAEGEAGVKKVLQMLRDEFELTMALSGCRSLSEITRNHIVTEWDTPRHLPRL
notes: as for B1
B6 was tested, and the Km [4] was 487 ± 99 µM, the kcat [4] was 3.78 ± 1.26 s⁻¹ and the Km (purified protein [2]) was 2094 ± 791 µM. It also gave a kcat (purified protein [2]) of 6.81 s⁻¹, a Km (purified protein [3]) of 279 ± 30 µM and a kcat (purified protein [3]) of 10.93 ± 3.48 s⁻¹.

B7: AtGOX1 (Arabidopsis thaliana; T265D) (protein)
chain: MEITNVTEYDAIAKQKLPKMVYDYYASGAEDQWTLQENRNAFARILFRPRILIDVSKIDMTTTVLGFKISMPIMVAPTAMQKMAHPDGEYATARAASAAGTIMTLSSWATSSVEEVASTGPGIRFFQLYVYKNRNVVEQLVRRAERAGFKAIALTVDTPRLGRRESDIKNRFTLPPNLTLKNFEGLDLGKMDEANDSGLASYVAGQIDRTLSWKDVQWLQTITKLPILVKGVLTGEDARIAIQAGAAGIIVSNHGARQLDYVPADISALEEVVKATQGRIPVFLDGGVRRGTDVFKALALGASGIFIGRPVVFSLAAEGEAGVRKVLQMLRDEFELTMALSGCRSLKEISRNHITTEWDTPRPSARL
In the case of B7, the Km (purified protein [3]) is reported as 531 ± 50 µM and the kcat (purified protein [3]) is reported as 0.14 ± 0.06 s⁻¹.

B8: AtGOX1 (Arabidopsis thaliana; T4D) (protein)
chain: MEIDNVTEYDAIAKQKLPKMVYDYYASGAEDQWTLQENRNAFARILFRPRILIDVSKIDMTTTVLGFKISMPIMVAPTAMQKMAHPDGEYATARAASAAGTIMTLSSWATSSVEEVASTGPGIRFFQLYVYKNRNVVEQLVRRAERAGFKAIALTVDTPRLGRRESDIKNRFTLPPNLTLKNFEGLDLGKMDEANDSGLASYVAGQIDRTLSWKDVQWLQTITKLPILVKGVLTGEDARIAIQAGAAGIIVSNHGARQLDYVPATISALEEVVKATQGRIPVFLDGGVRRGTDVFKALALGASGIFIGRPVVFSLAAEGEAGVRKVLQMLRDEFELTMALSGCRSLKEISRNHITTEWDTPRPSARL
With B8 the Km (purified protein [3]) was 151 ± 44 µM and the kcat (purified protein [3]) was 0.61 ± 0.46 s⁻¹.

B9: AtGOX1 (Arabidopsis thaliana; T158V) (protein)
chain: MEITNVTEYDAIAKQKLPKMVYDYYASGAEDQWTLQENRNAFARILFRPRILIDVSKIDMTTTVLGFKISMPIMVAPTAMQKMAHPDGEYATARAASAAGTIMTLSSWATSSVEEVASTGPGIRFFQLYVYKNRNVVEQLVRRAERAGFKAIALTVDVPRLGRRESDIKNRFTLPPNLTLKNFEGLDLGKMDEANDSGLASYVAGQIDRTLSWKDVQWLQTITKLPILVKGVLTGEDARIAIQAGAAGIIVSNHGARQLDYVPATISALEEVVKATQGRIPVFLDGGVRRGTDVFKALALGASGIFIGRPVVFSLAAEGEAGVRKVLQMLRDEFELTMALSGCRSLKEISRNHITTEWDTPRPSARL
Work on B9 yielded a Km (purified protein [3]) of 100 ± 19 µM and a kcat (purified protein [3]) of 2.36 ± 0.47 s⁻¹.

B10: AtGOX1 (Arabidopsis thaliana) (protein)
chain: MEITNVTEYDAIAKQKLPKMVYDYYASGAEDQWTLQENRNAFARILFRPRILIDVSKIDMTTTVLGFKISMPIMVAPTAMQKMAHPDGEYATARAASAAGTIMTLSSWATSSVEEVASTGPGIRFFQLYVYKNRNVVEQLVRRAERAGFKAIALTVDTPRLGRRESDIKNRFTLPPNLTLKNFEGLDLGKMDEANDSGLASYVAGQIDRTLSWKDVQWLQTITKLPILVKGVLTGEDARIAIQAGAAGIIVSNHGARQLDYVPATISALEEVVKATQGRIPVFLDGGVRRGTDVFKALALGASGIFIGRPVVFSLAAEGEAGVRKVLQMLRDEFELTMALSGCRSLKEISRNHITTEWDTPRPSARL
notes: full length (367 residues), N-terminal His-tag, pET28a, expressed in Escherichia coli
B10 was tested, and the Km [4] was 757 ± 82 µM, the kcat [4] was 5.95 ± 0.58 s⁻¹ and the Km (purified protein [2]) was 1664 ± 293 µM. The kcat (purified protein [2]) was 9.09 s⁻¹, the Km (purified protein [3]) was 210 ± 90 µM and the kcat (purified protein [3]) was 11.12 ± 3.08 s⁻¹.
